Reference: paper PMC5503505 (Nature structural & molecular biology, 2017)

B2: Cdt1 (natural protein)
chain: MSGTANSRRKEVLRVPVIDLNRVSDEEQLLPVVRAILLQHDTFLLKNYANKAVLDALLAGLTTKDLPDTSQGFDANFTGTLPLEDDVWLEQYIFDTDPQLRFDRKCRNESLCSIYSRLFKLGLFFAQLCVKSVVSSAELQDCISTSHYATKLTRYFNDNGSTHDGADAGATVLPTGDDFQYLFERDYVTFLPTGVLTIFPCAKAIRYKPSTMATTDNSWVSIDEPDCLLFHTGTLLARWSQGMHTTSPLQIDPRANIVSLTIWPPLTTPISSKGEGTIANHLLEQQIKAFPKVAQQYYPRELSILRLQDAMKFVKELFTVCETVLSLNALSRSTGVPPELHVLLPQISSMMKRKIVQDDILKLLTIWSDAYVVELNSRGELTMNLPKRDNLTTLTNKSRTLAFVERAESWYQQVIASKDEIMTDVPAFKINKRRSSSNSKTVLSSKVQTKSSNANALNNSRYLANSKENFMYKEKMPDSQANLMDRLRERERRSAALLSQRQKRYQQFLAMKMTQVFDILFSLTRGQPYTETYLSSLIVDSLQDSNNPIGTKEASEILAGLQGILPMDISVHQVDGGLKVYRWNSLDKNRFSKLLQIHKSKQQD
B4: Orc1 (natural protein)
chain: MAKTLKDLQGWEIITTDEQGNIIDGGQKRLRRRGAKTEHYLKRSSDGIKLGRGDSVVMHNEAAGTYSVYMIQELRLNTLNNVVELWALTYLRWFEVNPLAHYRQFNPDANILNRPLNYYNKLFSETANKNELYLTAELAELQLFNFIRVANVMDGSKWEVLKGNVDPERDFTVRYICEPTGEKFVDINIEDVKAYIKKVEPREAQEYLKDLTLPSKKKEIKRGPQKKDKATQTAQISDAETRATDITDNEDGNEDESSDYESPSDIDVSEDMDSGEISADELEEEEDEEEDEDEEEKEARHTNSPRKRGRKIKLGKDDIDASVQPPPKKRGRKPKDPSKPRQMLLISSCRANNTPVIRKFTKKNVARAKKKYTPFSKRFKSIAAIPDLTSLPEFYGNSSELMASRFENKLKTTQKHQIVETIFSKVKKQLNSSYVKEEILKSANFQDYLPARENEFASIYLSAYSAIESDSATTIYVAGTPGVGKTLTVREVVKELLSSSAQREIPDFLYVEINGLKMVKPTDCYETLWNKVSGERLTWAASMESLEFYFKRVPKNKKKTIVVLLDELDAMVTKSQDIMYNFFNWTTYENAKLIVIAVANTMDLPERQLGNKITSRIGFTRIMFTGYTHEELKNIIDLRLKGLNDSFFYVDTKTGNAILIDAAGNDTTVKQTLPEDVRKVRLRMSADAIEIASRKVASVSGDARRALKVCKRAAEIAEKHYMAKHGYGYDGKTVIEDENEEQIYDDEDKDLIESNKAKDDNDDDDDNDGVQTVHITHVMKALNETLNSHVITFMTRLSFTAKLFIYALLNLMKKNGSQEQELGDIVDEIKLLIEVNGSNKFVMEIAKTLFQQGSDNISEQLRIISWDFVLNQLLDAGILFKQTMKNDRICCVKLNISVEEAKRAMNEDETLRNL

How the values were obtained:
Assay in all cases: cryo-EM structure
[1] = target: Mcm3 (S. cerevisiae, UniProt P24279 1-971)
Sequence of Mcm3 (P24279 whole entry): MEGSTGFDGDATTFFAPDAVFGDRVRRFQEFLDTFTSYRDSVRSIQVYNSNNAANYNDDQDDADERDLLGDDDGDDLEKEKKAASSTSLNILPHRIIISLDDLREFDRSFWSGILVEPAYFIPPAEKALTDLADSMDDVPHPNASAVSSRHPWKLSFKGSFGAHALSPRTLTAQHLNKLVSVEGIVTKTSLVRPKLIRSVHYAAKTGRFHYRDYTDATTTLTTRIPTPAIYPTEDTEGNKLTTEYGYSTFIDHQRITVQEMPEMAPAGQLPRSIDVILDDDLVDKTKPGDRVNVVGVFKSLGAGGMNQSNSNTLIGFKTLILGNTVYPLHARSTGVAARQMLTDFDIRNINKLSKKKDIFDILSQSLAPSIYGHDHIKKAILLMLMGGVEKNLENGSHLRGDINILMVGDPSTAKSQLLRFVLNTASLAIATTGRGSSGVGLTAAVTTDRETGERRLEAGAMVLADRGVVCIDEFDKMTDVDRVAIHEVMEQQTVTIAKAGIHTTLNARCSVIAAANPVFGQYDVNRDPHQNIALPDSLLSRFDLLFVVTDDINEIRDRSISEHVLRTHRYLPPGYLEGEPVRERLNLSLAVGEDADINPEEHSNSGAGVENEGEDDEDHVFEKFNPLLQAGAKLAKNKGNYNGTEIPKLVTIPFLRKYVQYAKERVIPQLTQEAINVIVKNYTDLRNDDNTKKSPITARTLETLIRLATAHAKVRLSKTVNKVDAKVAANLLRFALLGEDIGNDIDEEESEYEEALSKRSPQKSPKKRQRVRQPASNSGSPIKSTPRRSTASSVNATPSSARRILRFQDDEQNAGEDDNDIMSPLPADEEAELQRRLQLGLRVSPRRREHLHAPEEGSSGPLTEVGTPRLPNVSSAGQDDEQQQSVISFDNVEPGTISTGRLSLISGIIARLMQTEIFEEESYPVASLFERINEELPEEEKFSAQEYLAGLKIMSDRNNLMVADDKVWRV

[2] = target: T1, Mcm4 (S. cerevisiae, UniProt P30665 1-933)
T1 sequence: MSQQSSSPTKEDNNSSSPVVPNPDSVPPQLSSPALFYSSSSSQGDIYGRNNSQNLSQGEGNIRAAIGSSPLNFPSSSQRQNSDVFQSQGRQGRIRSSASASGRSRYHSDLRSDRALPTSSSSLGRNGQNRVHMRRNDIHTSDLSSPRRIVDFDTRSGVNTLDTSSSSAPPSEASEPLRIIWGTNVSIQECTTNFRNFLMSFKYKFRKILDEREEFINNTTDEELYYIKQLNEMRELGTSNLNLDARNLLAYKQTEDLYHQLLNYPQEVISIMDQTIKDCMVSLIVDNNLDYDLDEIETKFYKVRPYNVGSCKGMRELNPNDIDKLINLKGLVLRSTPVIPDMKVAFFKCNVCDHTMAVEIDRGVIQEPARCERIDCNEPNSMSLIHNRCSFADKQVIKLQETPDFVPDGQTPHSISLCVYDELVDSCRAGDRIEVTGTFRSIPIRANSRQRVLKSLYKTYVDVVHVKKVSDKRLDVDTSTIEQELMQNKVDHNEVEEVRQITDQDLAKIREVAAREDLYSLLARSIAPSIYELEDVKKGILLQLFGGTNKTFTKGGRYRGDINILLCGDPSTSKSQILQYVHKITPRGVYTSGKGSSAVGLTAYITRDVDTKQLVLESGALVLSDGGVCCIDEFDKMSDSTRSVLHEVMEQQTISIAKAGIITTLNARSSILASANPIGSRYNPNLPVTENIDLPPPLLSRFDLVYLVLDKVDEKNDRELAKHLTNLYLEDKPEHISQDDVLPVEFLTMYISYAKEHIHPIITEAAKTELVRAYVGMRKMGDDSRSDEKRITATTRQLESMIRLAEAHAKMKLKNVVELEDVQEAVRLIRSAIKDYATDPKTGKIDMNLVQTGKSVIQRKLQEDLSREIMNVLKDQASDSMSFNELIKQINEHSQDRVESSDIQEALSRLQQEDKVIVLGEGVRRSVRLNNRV

[3] = target: Mcm6 (S. cerevisiae, UniProt P53091 1-1017)
Sequence of Mcm6 (P53091 whole entry): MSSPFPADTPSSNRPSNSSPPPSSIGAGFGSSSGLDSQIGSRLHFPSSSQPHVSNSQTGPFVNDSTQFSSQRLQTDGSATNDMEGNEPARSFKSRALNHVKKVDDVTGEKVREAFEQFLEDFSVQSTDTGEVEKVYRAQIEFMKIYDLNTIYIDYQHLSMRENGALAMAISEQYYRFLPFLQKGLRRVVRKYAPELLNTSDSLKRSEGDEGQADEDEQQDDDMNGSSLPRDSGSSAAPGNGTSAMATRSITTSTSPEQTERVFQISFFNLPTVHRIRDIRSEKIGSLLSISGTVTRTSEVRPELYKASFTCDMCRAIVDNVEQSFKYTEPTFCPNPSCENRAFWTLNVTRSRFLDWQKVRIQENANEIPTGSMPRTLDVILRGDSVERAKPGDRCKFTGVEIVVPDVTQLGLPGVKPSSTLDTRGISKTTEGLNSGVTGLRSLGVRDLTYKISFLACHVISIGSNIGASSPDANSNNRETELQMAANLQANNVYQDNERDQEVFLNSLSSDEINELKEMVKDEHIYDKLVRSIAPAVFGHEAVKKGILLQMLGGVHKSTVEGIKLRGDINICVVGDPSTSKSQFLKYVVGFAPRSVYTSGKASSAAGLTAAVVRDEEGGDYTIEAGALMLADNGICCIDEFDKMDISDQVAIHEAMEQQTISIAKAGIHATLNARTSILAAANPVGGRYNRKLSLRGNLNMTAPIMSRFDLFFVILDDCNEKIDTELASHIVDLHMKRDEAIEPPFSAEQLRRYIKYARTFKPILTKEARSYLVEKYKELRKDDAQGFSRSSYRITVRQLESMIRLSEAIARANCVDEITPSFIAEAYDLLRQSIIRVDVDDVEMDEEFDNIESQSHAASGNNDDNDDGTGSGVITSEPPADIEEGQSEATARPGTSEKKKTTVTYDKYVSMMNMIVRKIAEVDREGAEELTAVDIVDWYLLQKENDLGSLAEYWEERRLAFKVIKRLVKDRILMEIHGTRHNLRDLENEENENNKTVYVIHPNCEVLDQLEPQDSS

[4] = target: B4
[5] = target: B2

B1: Mcm7 (natural protein)
chain: MSAALPSIQLPVDYNNLFNEITDFLVTFKQDTLSSDATRNENEDENLDAENIEQHLLEKGPKYMAMLQKVANRELNSVIIDLDDILQYQNEKFLQGTQADDLVSAIQQNANHFTELFCRAIDNNMPLPTKEIDYKDDVLDVILNQRRLRNERMLSDRTNEIRSENLMDTTMDPPSSMNDALREVVEDETELFPPNLTRRYFLYFKPLSQNCARRYRKKAISSKPLSVRQIKGDFLGQLITVRGIITRVSDVKPAVEVIAYTCDQCGYEVFQEVNSRTFTPLSECTSEECSQNQTKGQLFMSTRASKFSAFQECKIQELSQQVPVGHIPRSLNIHVNGTLVRSLSPGDIVDVTGIFLPAPYTGFKALKAGLLTETYLEAQFVRQHKKKFASFSLTSDVEERVMELITSGDVYNRLAKSIAPEIYGNLDVKKALLLLLVGGVDKRVGDGMKIRGDINVCLMGDPGVAKSQLLKAICKISPRGVYTTGKGSSGVGLTAAVMKDPVTDEMILEGGALVLADNGICCIDEFDKMDESDRTAIHEVMEQQTISISKAGINTTLNARTSILAAANPLYGRYNPRLSPLDNINLPAALLSRFDILFLMLDIPSRDDDEKLAEHVTYVHMHNKQPDLDFTPVEPSKMREYIAYAKTKRPVMSEAVNDYVVQAYIRLRQDSKREMDSKFSFGQATPRTLLGIIRLSQALAKLRLADMVDIDDVEEALRLVRVSKESLYQETNKSKEDESPTTKIFTIIKKMLQETGKNTLSYENIVKTVRLRGFTMLQLSNCIQEYSYLNVWHLINEGNTLKFVDDGTMDTDQEDSLVSTPKLAPQTTASANVSAQDSDIDLQDA
- binding result [1]: binds
- binding result [2]: binds

Binder: B2
- binding result [3]: binds

B3: Orc4 (natural protein)
chain: MTISEARLSPQVNLLPIKRHSNEEVEETAAILKKRTIDNEKCKDSDPGFGSLQRRLLQQLYGTLPTDEKIIFTYLQDCQQEIDRIIKQSIIQKESHSVILVGPRQSYKTYLLDYELSLLQQSYKEQFITIRLNGFIHSEQTAINGIATQLEQQLQKIHGSEEKIDDTSLETISSGSLTEVFEKILLLLDSTTKTRNEDSGEVDRESITKITVVFIFDEIDTFAGPVRQTLLYNLFDMVEHSRVPVCIFGCTTKLNILEYLEKRVKSRFSQRVIYMPQIQNLDDMVDAVRNLLTVRSEISPWVSQWNETLEKELSDPRSNLNRHIRMNFETFRSLPTLKNSIIPLVATSKNFGSLCTAIKSCSFLDIYNKNQLSNNLTGRLQSLSDLELAILISAARVALRAKDGSFNFNLAYAEYEKMIKAINSRIPTVAPTTNVGTGQSTFSIDNTIKLWLKKDVKNVWENLVQLDFFTEKSAVGLRDNATAAFYASNYQFQGTMIPFDLRSYQMQIILQELRRIIPKSNMYYSWTQL
- binding result [3]: binds
- binding result [4]: binds
- binding result [5]: binds

Binder: B4
- binding result [2]: binds
